One test deals with mouse CRHR2. The experiment in a line: CRH-induced luciferase reporter blocking assay, CHO-CRE-mCRHR2 cells. The test is classed as cell-based. As for the experimental part:
To create CHO-CRE-hCRHR1, -hCRHR2, -mCRHR1, and -mCRHR2 reporter cell lines, pcDNA3.1-hCRHR1, -hCRHR2, -mCRHR1, and -mCRHR2 were introduced into CHO-CRE cells established above by electroporation as described above. Selection antibiotics hygromycin at 500 μg/ml and G418 at 1,000 μg/ml were employed. Individual established stable cell lines were characterized by both CRH and forskolin stimulation. […]
(§1) Cells were digested by trypsin-EDTA (Life technologies, Cat #:12604-013), centrifuged at 1,000 rpm for 5 min, resuspended in growth medium, counted using a cell counter, seeded at a concentration of 5,000 cells per 100 μl in 96-well flat plates, and incubated overnight. 50 μl of 4× serially diluted antibodies was added (8 points, 1/4 diluted by growth medium) to plates containing CHO-CRE-hCRHR1 cells, and 50 μl of 4×CRH (4× is 2 nM, final is 0.5 nM) was added. Similarly, 4×CRH (4× is 0.4 nM, final is 0.1 nM) was added to CHO-CRE-hCRHR2 cells and CHO-CRE-mCRHR1 cells, and 4×CRH (4× is 20 nM, final is 5 nM) was added to CHO-CRE-mCRHR2 cells. Next, plates were incubated 4-6 hours at 37° C. in a CO2 incubator. 60 μl of culture medium was removed, to which was added 60 μl of Bio-Glo luciferase, followed by incubation for 10 min at RT. Plates were read in a luciferase plate reader (EnVision, PerkinElmer).
In general terms: Reporter assays use an easily measured gene product as a stand-in for the process of interest.

The test system of another test is human CRHR2. In words: CRH-induced luciferase reporter blocking assay, CHO-CRE-hCRHR2 cells. The test is classed as cell-based. As for the experimental part: To create CHO-CRE-hCRHR1, -hCRHR2, -mCRHR1, and -mCRHR2 reporter cell lines, pcDNA3.1-hCRHR1, -hCRHR2, -mCRHR1, and -mCRHR2 were introduced into CHO-CRE cells established above by electroporation as described above. Selection antibiotics hygromycin at 500 μg/ml and G418 at 1,000 μg/ml were employed. Individual established stable cell lines were characterized by both CRH and forskolin stimulation.
Activated GPCR proteins increase production of the intracellular cAMP. CHO-CRE-human CRHR1 stable clone 11 was generated by introduction of pcDNA3.1-human CRHR1 under the selection of G418 and hygromycin. Human CRHR1 expression in CHO-CRE-hCRHR1 Clone 11 was confirmed by flow cytometry (data not shown). To further validate that the cell line was functional, CHO-CRE-hCRHR1 Clone 11 cells were treated with forskolin and CRH peptide. […] Subsequently CHO-CRE-hCRHR2 Clone 32, -mCRHR1 Clone 22, and -mCRHR2 Clone 8 cell lines were established using similar methodology and validated with CRH treatment (data not shown).
Blocking CRHR1 by small molecules or neutralization of CRH peptide can reduce luciferase expression if the CRH-CRHR1 system works in CHO-CRE-hCRHR1 cells. Antalarmin, a small molecule CRHR1 antagonist, blocked CRH-mediated luciferase expression in CHO-CRE-hCRHR1 Clone 11 (data not shown). Furthermore, sheep anti-CRH polyclonal antibody reduced CRH-mediated luciferase expression in these cells (data not shown). Likewise, sheep anti-CRH polyclonal antibody blocked CRH-mediated luciferase expression in CHO-CRE-hCRHR2, CHO-CRE-mCRHR1, and CHO-CRE-mCRHR2 cells (data not shown).
as §1

The mark [1] stands for this setting: CHO-CRE-hCRHR2 cells, 0.1 nM CRH.

For eight molecules, IC50 results are on record in patent US20260042834A1, “ANTI-CORTICOTROPIN-RELEASING HORMONE ANTIBODIES AND POLYCYSTIC OVARY SYNDROME” (HBM ALPHA THERAPEUTICS, INC., priority 2022, published 2026).

Broadly, the IC50 is the concentration at which inhibition is half-maximal.

B1: PR302029: humanized variant of Series 5 mAb PR301777; VH SEQ ID NO: 255, VL SEQ ID NO: 310 (antibody, V domains shown)
VH: EVQLVESGGGLVQPGGSLRLSCAASGFTFSNYWMNWVRQAPGKGLEWVGEIRLKSNNYATHYAESVKGRFTISRDDSKNSLYLQMNSLKTEDTAVYYCTVGTLVYWGQGTLVTVSS
VL: DIVLTQSPDSLAVSLGERATINCRASQSVSTSTYNYMHWFQQKPGQPPKLLIKFASNLESGVPDRFSGSGSGTDFTLTISSLQAEDTAVYYCQHSWEIPYTFGQGTKLEIK
modifications: PR302029 VH, PR302031 VH, PR302034 VH; PR302029 VL, PR302036 VL, PR302043 VL, PR302050 VL, PR302064 VL
Turning to B1, the IC50 stood at 8.08 nM with mouse CRHR2 (CHO-CRE-mCRHR2 cells, 5 nM CRH) and 5.75 nM with human CRHR2 (setting [1]).

B2: PR302048: humanized variant of Series 5 mAb PR301777; VH SEQ ID NO: 257, VL SEQ ID NO: 312 (antibody, V domains shown)
VH: EVQLVESGGGLVQPGGSLKLSCAASGFTFSNYWMNWVRQASGKGLEWVGEIRLKSNNYATHYAESVKGRFTISRDDSKNTAYLQMNSLKTEDTAVYYCTRGTLVYWGQGTLVTVSS
VL: DIQLTQSPSSLSASVGDRVTITCRASQSVSTSTYNYMHWFQQKPGKAPKLLIKFASNLESGVPSRFSGSGSGTDFTLTISSLQPEDTATYYCQHSWEIPYTFGQGTKLEIK
modifications: PR302043 VH, PR302045 VH, PR302048 VH; PR302034 VL, PR302041 VL, PR302048 VL, PR302055 VL, PR302069 VL
For B2, the IC50 in the test with mouse CRHR2 (CHO-CRE-mCRHR2 cells, 5 nM CRH) worked out at 6.32 nM; with human CRHR2 (setting [1]), 13.9 nM.

B3: PR302036: humanized variant of Series 5 mAb PR301777; VH SEQ ID NO: 256, VL SEQ ID NO: 310 (antibody, V domains shown)
VH: EMQLVESGGGLVQPGGSLRLSCAASGFTFSNYWMNWVRQAPGKGLEWVAEIRLKSNNYATHYAESVKGRFTISRDDSKSSVYLQMNSLKTEDTAVYYCTVGTLVYWGQGTLVTVSS
VL: DIVLTQSPDSLAVSLGERATINCRASQSVSTSTYNYMHWFQQKPGQPPKLLIKFASNLESGVPDRFSGSGSGTDFTLTISSLQAEDTAVYYCQHSWEIPYTFGQGTKLEIK
modifications: PR302036 VH, PR302038 VH, PR302041 VH; PR302029 VL, PR302036 VL, PR302043 VL, PR302050 VL, PR302064 VL
On to B3, for which the IC50 with mouse CRHR2 (CHO-CRE-mCRHR2 cells, 5 nM CRH) was found to be 5.42 nM; in the test with human CRHR2 (setting [1]), 2.21 nM.

B4: PR302041: humanized variant of Series 5 mAb PR301777; VH SEQ ID NO: 256, VL SEQ ID NO: 312 (antibody, V domains shown)
VH: EMQLVESGGGLVQPGGSLRLSCAASGFTFSNYWMNWVRQAPGKGLEWVAEIRLKSNNYATHYAESVKGRFTISRDDSKSSVYLQMNSLKTEDTAVYYCTVGTLVYWGQGTLVTVSS
VL: DIQLTQSPSSLSASVGDRVTITCRASQSVSTSTYNYMHWFQQKPGKAPKLLIKFASNLESGVPSRFSGSGSGTDFTLTISSLQPEDTATYYCQHSWEIPYTFGQGTKLEIK
modifications: PR302036 VH, PR302038 VH, PR302041 VH; PR302034 VL, PR302041 VL, PR302048 VL, PR302055 VL, PR302069 VL
Turning to B4, the IC50 with mouse CRHR2 (CHO-CRE-mCRHR2 cells, 5 nM CRH) stood at 12.4 nM; in the test with human CRHR2 (setting [1]) it was 4.92 nM.

B5: PR302043: humanized variant of Series 5 mAb PR301777; VH SEQ ID NO: 257, VL SEQ ID NO: 310 (antibody, V domains shown)
VH: EVQLVESGGGLVQPGGSLKLSCAASGFTFSNYWMNWVRQASGKGLEWVGEIRLKSNNYATHYAESVKGRFTISRDDSKNTAYLQMNSLKTEDTAVYYCTRGTLVYWGQGTLVTVSS
VL: DIVLTQSPDSLAVSLGERATINCRASQSVSTSTYNYMHWFQQKPGQPPKLLIKFASNLESGVPDRFSGSGSGTDFTLTISSLQAEDTAVYYCQHSWEIPYTFGQGTKLEIK
modifications: PR302043 VH, PR302045 VH, PR302048 VH; PR302029 VL, PR302036 VL, PR302043 VL, PR302050 VL, PR302064 VL
In the case of B5, the IC50 in the test with mouse CRHR2 (CHO-CRE-mCRHR2 cells, 5 nM CRH) came out at 6.17 nM; in the test with human CRHR2 (setting [1]) it was 5.25 nM.

B6: PR302034: humanized variant of Series 5 mAb PR301777; VH SEQ ID NO: 255, VL SEQ ID NO: 312 (antibody, V domains shown)
VH: EVQLVESGGGLVQPGGSLRLSCAASGFTFSNYWMNWVRQAPGKGLEWVGEIRLKSNNYATHYAESVKGRFTISRDDSKNSLYLQMNSLKTEDTAVYYCTVGTLVYWGQGTLVTVSS
VL: DIQLTQSPSSLSASVGDRVTITCRASQSVSTSTYNYMHWFQQKPGKAPKLLIKFASNLESGVPSRFSGSGSGTDFTLTISSLQPEDTATYYCQHSWEIPYTFGQGTKLEIK
modifications: PR302029 VH, PR302031 VH, PR302034 VH; PR302034 VL, PR302041 VL, PR302048 VL, PR302055 VL, PR302069 VL
For the molecule B6, the IC50 in the test on mouse CRHR2 (CHO-CRE-mCRHR2 cells, 5 nM CRH) was 29.3 nM; in the test on human CRHR2 (setting [1]), 10.2 nM.

B7: PR302341-8: humanized variant of Series 10 mAb PR302341; VH SEQ ID NO: 281, VL SEQ ID NO: 340 (antibody, V domains shown)
VH: QVQLVQSGAEVKKPGASVKVSCKASGYTFTDYFMKWVRQAPGQGLEWMGVINPNNGDIFYNQKFKGRVTMTVDKSTSTAYMELSSLRSEDTAVYYCARGTDRALFAYWGQGTLVTVSS
VL: DVVMTQSPLSLPVTLGQPASISCRSGQSIVHSDGNTYLEWYQQRPGQSPRLLIYKVSNRFSGVPDRFSGSGSGTDFTLKISRVEAEDLGVYYCFQGSHIPWTFGGGTKVEIK
modifications: PR302341-10 VH, PR302341-11 VH, PR302341-12 VH, PR302341-14 VH,PR302341-67 VH, PR302341-68 VH, PR302341-69 VH, PR302341-7 VH,PR302341-8 VH, PR302341-9 VH; PR302341-19 VL, PR302341-20 VL, PR302341-21 VL, PR302341-22 VL,PR302341-23 VL, PR302341-28 VL, PR302341-29 VL, PR302341-2 VL,PR302341-41 VL, PR302341-55 VL, PR302341-56 VL, PR302341-57 VL,PR302341-
With B7, the IC50 in the test on mouse CRHR2 (CHO-CRE-mCRHR2 cells, 5 nM CRH) was 0.82 nM; in the test with human CRHR2 (setting [1]), 0.293 nM.

B8: PR302341-10: humanized variant of Series 10 mAb PR302341; VH SEQ ID NO: 281, VL SEQ ID NO: 336 (antibody, V domains shown)
VH: QVQLVQSGAEVKKPGASVKVSCKASGYTFTDYFMKWVRQAPGQGLEWMGVINPNNGDIFYNQKFKGRVTMTVDKSTSTAYMELSSLRSEDTAVYYCARGTDRALFAYWGQGTLVTVSS
VL: DVVMTQTPLSSPVTLGQPASISCRSGQSIVHSDGNTYLEWYQQRPGQPPRLLIYKVSNRFSGVPDRFSGSGAGTDFTLKISRVEAEDLGVYYCFQGSHIPWTFGGGTKVEIK
modifications: PR302341-10 VH, PR302341-11 VH, PR302341-12 VH, PR302341-14 VH,PR302341-67 VH, PR302341-68 VH, PR302341-69 VH, PR302341-7 VH,PR302341-8 VH, PR302341-9 VH; PR302341-10 VL, PR302341-24 VL, PR302341-26 VL, PR302341-43 VL,PR302341-44 VL, PR302341-45 VL, PR302341-4 VL
For the molecule B8, the IC50 in the test with mouse CRHR2 (CHO-CRE-mCRHR2 cells, 5 nM CRH) turned out to be 1.22 nM; with mouse CRHR2 (Table 9, mCrhr2), 1.44 nM; with human CRHR2 (setting [1]) it was 0.143 nM; in the test on human CRHR2 (Table 9, hCRHR2), 0.83 nM.
